Target: T1, FtsQ (Escherichia coli, UniProt P06136 1-276)
T1 construct: FtsQ of Escherichia coli
Test: not stated; unpublished results (Luirink and den Blaauwen); method not given

T1 sequence (P06136 whole entry): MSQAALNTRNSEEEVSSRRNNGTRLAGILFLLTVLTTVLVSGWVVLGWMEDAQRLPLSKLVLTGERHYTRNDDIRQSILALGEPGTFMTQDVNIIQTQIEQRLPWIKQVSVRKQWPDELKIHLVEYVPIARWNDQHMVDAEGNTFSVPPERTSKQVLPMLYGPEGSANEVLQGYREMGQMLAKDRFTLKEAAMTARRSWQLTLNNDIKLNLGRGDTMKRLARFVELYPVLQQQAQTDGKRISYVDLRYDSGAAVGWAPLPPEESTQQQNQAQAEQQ

B1: FtsB (natural protein, Escherichia coli, UniProt P0A6S5 1-103, looked up)
chain: MGKLTLLLLAILVWLQYSLWFGKNGIHDYTRVNDDVAAQQATNAKLKARNDQLFAEIDDLNGGQEALEERARNELSMTRPGETFYRLVPDASKRAQSAGQNNR
notes: FtsB of Escherichia coli
B1 was tested. Which “stoichiometry N” value did it give?
Its value is 1.
